Values quoted from earlier work, collected in paper PMC10775509.
Where two headings read alike, the source gives them in different places.

Key:
TREM-1 (Mus musculus) [1] = target: TREM-1 (Mus musculus) (UniProt Q9JKE2)
TREM-1 (Mus musculus) [2] = target: TREM-1 (Mus musculus) (UniProt Q9JKE2); remark: listed apart in the source

Chain of UniProt Q9JKE2 (Q9JKE2 21-230): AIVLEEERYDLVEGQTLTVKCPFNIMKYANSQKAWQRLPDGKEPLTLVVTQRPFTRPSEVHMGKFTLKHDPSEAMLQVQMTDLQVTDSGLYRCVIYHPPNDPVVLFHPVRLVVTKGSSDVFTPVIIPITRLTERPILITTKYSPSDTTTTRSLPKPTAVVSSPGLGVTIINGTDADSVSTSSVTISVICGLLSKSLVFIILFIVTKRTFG

Kd (TREM-1 (Mus musculus) [1]) | Kd (TREM-1 (Mus musculus) [2]) | Substance
0.117 µM |  | CIRP (from UniProt P60824)
 | 35.4 µM | HMGB1 (from UniProt P63158)
